Source: PMC9691347, “C9orf72 regulates the unfolded protein response and stress granule formation by interacting with eIF2α” (Theranostics, 2022)

Biological target: T1, MBP-tagged eIF2α (MBP-eIF2α) (human, UniProt P05198 1-315)
T1 construct: full-length human EIF2S1 cDNA in pMAL-c2x; source: Rosetta E. coli, purified (dextrin beads 6FF)
Experiment: pull-down; 0.5 µg purified GST or GST-tagged proteins on glutathione magnetic beads, incubated with 0.5 µg purified MBP or MBP-eIF2α for 4 h at 4°C; six washes with 400 mM NaCl, 0.5% Triton X-100; western blot
Conditions: both partners purified

T1 sequence (P05198 whole entry): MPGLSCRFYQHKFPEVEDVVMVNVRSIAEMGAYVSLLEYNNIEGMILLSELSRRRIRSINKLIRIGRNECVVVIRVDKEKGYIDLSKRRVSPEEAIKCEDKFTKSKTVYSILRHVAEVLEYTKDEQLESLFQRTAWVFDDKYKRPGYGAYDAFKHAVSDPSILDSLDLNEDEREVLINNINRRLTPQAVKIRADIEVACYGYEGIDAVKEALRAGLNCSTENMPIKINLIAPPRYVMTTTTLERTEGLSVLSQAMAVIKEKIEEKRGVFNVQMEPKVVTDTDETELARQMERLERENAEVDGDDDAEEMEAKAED

B1: GST-tagged C9orf72 short protein isoform (GST-C9S) (natural protein, human, UniProt Q96LT7-2 1-222, looked up)
chain: MSTLCPPPSPAVAKTEIALSGKSPLLAATFAYWDNILGPRVRHIWAPKTEQVLLSDGEITFLANHTLNGEILRNAESGAIDVKFFVLSEKGVIIVSLIFDGNWNGDRSTYGLSIILPQTELSFYLPLHRVCVDRLTHIIRKGRIWMHKERQENVQKIILEGTERMEDQGQSIIPMLTGEVIPVMELLSSMKSHSVPEEIDIADTVLNDDDIGDSCHEGFLLK
notes: human C9orf72 short protein isoform, 222 aa, encoded by exons 2-5; pGEX-6P-1 vector; source: Rosetta E. coli, purified (glutathione magnetic beads)
**Q.** Does B1 bind?
**A.** Result: binds
